Data published in US20230242616A1, “CHEMOKINE-SELECTIVE CXCR4 ECTODOMAIN-DERIVED (POLY)PEPTIDE” (Ludwig-Maximilians-Universität München, priority 2020, published 2023).

Experiments:
CXCL12 (human) = CXCL12 (human) (UniProt P48061); experiment: fluorescence spectroscopic titration, apparent KD; Fluos-labelled peptide (5 nM) titrated with CXCL12
[1] = molecular target: msR4M-L1 (CXCR4-ECL1[97-110]-6-Ahx-12-Ado-ECL2[182-196]) (human); experiment: fluorescence spectroscopic titration, self-assembly; Fluos-msR4M-L1 titrated with unlabelled msR4M-L1
[2] = molecular target: human macrophage migration-inhibitory factor (MIF) (human) (UniProt P14174); experiment: fluorescence spectroscopic titration, apparent Kd; Fluos-ngm titrated with MIF
[3] = molecular target: human macrophage migration-inhibitory factor (MIF) (human) (UniProt P14174); experiment: fluorescence spectroscopic titration, apparent Kd; Alexa-488-MIF titrated with ngm
[4] = molecular target: human macrophage migration-inhibitory factor (MIF) (human) (UniProt P14174); experiment: fluorescence spectroscopic titration
[5] = molecular target: human macrophage migration-inhibitory factor (MIF) (human) (UniProt P14174); experiment: cell-based or functional assay
[6] = molecular target: human macrophage migration-inhibitory factor (MIF) (human) (UniProt P14174); experiment: fluorescence spectroscopic titration of Alexa-MIF with increasing ngm-L5 [panel D]

Chain of human macrophage migration-inhibitory factor (MIF) (human) (P14174 2-115 limits assumed): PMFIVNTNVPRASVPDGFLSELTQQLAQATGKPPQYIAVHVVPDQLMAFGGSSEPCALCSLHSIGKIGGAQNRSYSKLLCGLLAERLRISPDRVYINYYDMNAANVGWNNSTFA
Chain of CXCL12 (human) (P48061 22-89 limits assumed): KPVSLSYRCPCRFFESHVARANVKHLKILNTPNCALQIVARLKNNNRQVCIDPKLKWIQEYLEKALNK

Row | Kd (CXCL12 (human)) [nM] | Kd [1] [nM] | Kd [2] [nM] | Kd [3] [nM] | Kd [4] [nM] | Atherogenic inhibitory activity (Dil-LDL uptake) (% of full-length msR4M-L1) [5] | EC50 (read off the curve) [6] [nM] | IC50 of inhibition of MIF-triggered Dil-oxLDL uptake (foam cell assay) [5] [nM] | Substance
1 | > 5000 | 142 | – | – | – | – | – | – | msR4M-L1 (CXCR4-ECL1[97-110]-6-Ahx-12-Ado-ECL2[182-196]) (designed binder)
2 | – | – | 44.4 | 11.7 | 14 | 80 | – | – | msR4M-L3 ([ECL1(102-110)]-6 Ahx-12 Ado-[ECL2(187-195)]) (designed binder)
3 | – | – | 11.9 | 43.2 | 12 | 80 | – | – | msR4M-L4 ([ECL1(102-110)]-8 Aoc-[ECL2(187-195)]) (designed binder)
4 | – | – | 14.3 | 41.8 | 14 | 30 | 40 | 69.7 | msR4M-L5 ([ECL1(102-110)]-O1pen-O1pen-[ECL2(187-195)]) (designed binder)
